B1: TPR t1 (parent)
chain: GACCAAUCUGCCCUCAGAGCUCGAGAACAUCUUCGGAUGCAGAGGAGGCAGGCUUCGGUGGCGCGAUAGCGCCAACGUCCUCAACCUCCAAUGCAUCCCACCACAUGAUGAUGCCUGAAGAGCCUUGGUUUUUUG

Variants of B1 are the subject of this series. The series is described as follows: polymerase ribozyme fitness, log enrichment relative to wild type (log ratio); higher = more active; in vitro selection for triplet polymerase activity. In a few lines: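 Fitness is a logarithmic measure of how a genotype enriched relative to the wild type, with replicate averages weighted by inverse variance. The logarithm uses base 2, and enrichment came from Illumina sequencing of input and output libraries. Those libraries were PCR-built, transcribed mutants of each subunit of a heterodimeric triplet polymerase ribozyme, passed through one triplicate in vitro selection round that included frozen incubation at −7 °C, gel excision of extended constructs and streptavidin-bead capture. Genotypes were kept only if they had ≥10 input reads and ≥1 read per output.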
With GACCAAUCUGCCCUCAGAGCUCGAGAACAUCUUCGGAUGUAGAGGAGCCAGGCUUCGGUGGCGCGAUAGCGCCAACGUCCUAAACCUCCAAUGCAUCCCACCACAUGAUGAUGCCUGAAGAGCCUUGGUUUUUUG, the “polymerase ribozyme fitness (log ratio)” value was -1.94. With GUCCAAUCUGCCCUCAGAGCACGAGAACAUCUUCGGAUGCAGAGGAGGUAGGCUUCGGUGGCGCGAUAGCGCCAACGUCCUCAACCUCCAAUGCAUCCCACCACAUGAUGAUGCCUGAAGAGCCUUGGUUUUUUG, the “polymerase ribozyme fitness (log ratio)” value is -4.09.

With GACCAAUCUGCCCUCAGAGCUCGAGAACAUCUUCGGAUGCAGAGGAGGCAGGCUUCGGUGGCGCGAUAGCGCCAACGUCCUCAACCACCAAUGCAUCCCACCACAAGAUGAUGCCUGAAGAGCCUUGGUUUUUUG, the “polymerase ribozyme fitness (log ratio)” value came out at 0.566. On to GACCAAUCUGCCCUCAGAACUCGAGAACAUCUUCGGAUGCAGAUGAGCAAGGAUUCGGUGGCGCGAUAUCGCCAACGUCCUCAACCUGCAAUGCAUCCCACCAAAUGAUGAUGCCUGAAGAGCCUUGGUUUUUUC, for which the “polymerase ribozyme fitness (log ratio)” value is -2.97.

Turning to GACCAAUCUGCCCUCAGAGCUCGAGAACAUCUUCGGAUGCAGAGGAGGCAGGCUUCGGUGGCUCGAUAGCGCCAACGUCCUCAACCUCCAAUGCAUCCCACCACAUGAUGAUGCCUGAAGAGCCUUGGUCUUUUG, the “polymerase ribozyme fitness (log ratio)” value is -1.84. With GAUCAAUCUGCCCUCAGAGCUCGAGAACAUCUUCGGAUGGAUAGGAGGCAGGCUUCGGUGGCGCGAUAGCGCCAACGUCCUUAACCUCUAAUGUAUCCCACCACAUGAUGAUGCCUGAAGAGCCUUGGUUUUUUG the figure was -3.64.

As for GACCAAUCUGCCCUCAGAGCUCGAGAACAUCUUCGGAUGCAUAGGAGGCAGGCUUCGGUGGCGCGAUAGCGUCAACGUCCUCAACCUCCAAUGCAUCCCACCACAUGAUGAUGCCUGAAGAGCCUUGGUUUUUUG, the “polymerase ribozyme fitness (log ratio)” value is -1.64. With GACCAAUCUGCCCUCAGAGCUCGAGAACAUCUUCGGAUGCAGAGGAGGCAGGCUUCGGUGGCGCGAUGGCGCCAACGUCCUCAACCUGCAAUGCAUCCCACCACCUGAUGCUGCCUGAAGAGCCUUGGUUUUUUG the figure was -4.63; with GACCAAUCUGCCCUCAGAGCUCGAGAACAUCUUCGGAUGCAGAGGAGGCAGGCUUCGGUGGCGCGAUACCGCCAACGGCCUCAACCUCCAAUGCAUCCCACUACAUGAUAAUGCCUGAAGAGCCUUGGUUUUUUG, -6.81; with GACCAAUCUGCCCUCAGAGCUCGAGAACAUCUUCGGAUGUAGAGGAGGAAGGCUUCGGUGUCGCGAUAGCGCCAACGUCCUGAACCUCCAAUGCAUCCCACCACAUGAUGAUGCCUGAAGAGCCUUGGUUGUUUG, -0.822. On to GACCAAUCUGCCCUCAGAGCUAGAGAACAUCUUCGGAUGCAGAGGAGGCAGGCUUCGGUGGCGCGAUAGCGCCAACGUCCUCAACCUCCAAUGCUUCCCACCACAUGAUGAUGCCUGAAGAGCCUUGGUUUUUUG, for which the “polymerase ribozyme fitness (log ratio)” value is -4.83. With GACCAAUCUGCGCUCAGAGCUCGAGAACAUCUUCGGAUGCAGAGGAGCCAGGCUUCGGUGGCGCGAUAGCGCCAACGUCCUCAACCUCCAAUGCAUCCCACCACAUGAUGAUGCCUGAAGAGCCUUGGUUUUUUU, the “polymerase ribozyme fitness (log ratio)” value was -1.51. As for GACCAAUCUGCCCUCAGAGCUCGAGAACAUCUUCGGAGGCAGAGGUGGCAGGCUUCGGUGGCGCGAUAGCGCCAACUUCCUCAACCUCCAAUGCAUCCCACCACAUGAUGAUGCCUGAAGAGCUUUGGUUUUUUG, the “polymerase ribozyme fitness (log ratio)” value was -1.67. For the variant GACCAAUCAGCCCUCAGAGCUCGAGGACAUCUUCGGAUGCAGAGGAGGCUGGCUUCGGUGGCGCGAUAGCGCCAACGUCCUCAACCUCCAAUGCAUCCCACCACAUGAUGAUGCCUGAAGAGCCUUGGUUUUUUG, the “polymerase ribozyme fitness (log ratio)” value was -1.68. In the case of GACCAAUCUGCCCUCAGAGCUCGAGAACAUCUUCGGAUGCAGAGGAGGCAGGGUUCGGUCGCGCGAUAGCGCCAACGUCCUCAACCUCCAAUGCAUCACACAACAUGAUGAUGCCUGAAGAGCCUUGGUUUUUUG, the “polymerase ribozyme fitness (log ratio)” value is -6.1. Consider GACCAAUCUGCCCUCAGAGCUCGAGAACAUCUUCGGAUGCAGAGGAGGCAGGCUUCGGUGGCGCGAUAGCGCCAACGUCCUCAACCUCCAAUGAAUCCCACCACAUGAUGAUGUCUGAAGAGCCUUGGUUUUUUG, for which the “polymerase ribozyme fitness (log ratio)” value was -2.56. For the variant GACCAAUCUGCCCUCAGAGCUCGAGAACAUCUUCGGAUGCAGAGGAGGCAGGCUUCGGUGGCGCGAUAGUGCCAACGUCCUCAACCUCCAAUGCAUACCACCACAUGAUGAUGCCUGAAGAGCCUUGGUUUUUUG, the “polymerase ribozyme fitness (log ratio)” value is -4.6. As to GACCAAUCUGCCCUCAGAGCUCGAGAACAUCUUCGGAUGCAGAGGAGGCUGGUUUCGGUGGCGGGAUAGCGCCAACGUCCUCAACCUCCAAUGCAUCCCACCACAUGAUGUUGCCUGAAGAGCUUUGGUUUUUUG, the “polymerase ribozyme fitness (log ratio)” value was -8.17. With GACCAAUCUGCCCUCAGAGCUCGAGAACAUCUUCGGAUGCAGAGGAGGCAGGCUUCGGUAGCGCGAUAGCGCCAACGUCCUCAACCUCCAAUACAUCCCACCACAUGAUGAUGCCUGAAGUGCCUUGGUUUUUUG the figure was 1.81; with GACCAAUCUGCCCUCAGAGCUCGAGAACAUCUUCGGAUGCAGAGGAGGCAGGCUUCGGUGGCGCGAUAGCGCAAACGUCCUCAACCUCCAAUGCAUCCCACAACAUGAUGAUGCCUGAAGAGCCUUGGUUUUUUG, -2.07.

As for GACCAAUCUGCCCUCAGAGCUCGAGAAGAUCUUCGGAUGCAGAGGAGGCAGGCUUCCGUGGCCCGAUAGCGCUAACGUCCUCCACCUCCAAUGCAUCCCACCACAUGAUGAUGCCUGAAGAGACUUGGUUUUUUG, the “polymerase ribozyme fitness (log ratio)” value was -5.12.
